Reference: the Human Domainome abundance scans (Beltran et al. 2025)
± gives the uncertainty stated by the source.

B1: Cell division cycle and apoptosis regulator protein 1, residues 625 to 674; numbered along this chain, Q8IX12 (parent)
chain: ISTPTHWSKLDPKTMKVNDLRKELESRALSSKGLKSQLIARLTKQLKVEE

Variants of: B1
Assay: abundance fitness (aPCA) (normalised: wild type 0, dead -1); higher = more abundant; growth selection in yeast, the domain comes from the species named
Settings: Homo sapiens

Abundance fitness: each site, then its substitutions
R27: A -0.713 ± 0.064, S -0.818 ± 0.043, D -0.747 ± 0.06
E23: S -0.617 ± 0.048, Q -0.228 ± 0.06, L -0.913 ± 0.07, K -1 ± 0.061
G33: N -1.2 ± 0.3, E -0.857 ± 0.058, C -1 ± 0.073, Q -0.819 ± 0.05, V -0.919 ± 0.055, H -0.932 ± 0.14
E49: Y -1.21 ± 0.32, M -0.937 ± 0.056, V -0.906 ± 0.067
S8: F -0.338 ± 0.034, W -0.272 ± 0.055, A -0.081 ± 0.043, G -0.036 ± 0.04, Q -0.395 ± 0.039, Y -0.173 ± 0.063, H -0.074 ± 0.069, N -0.09 ± 0.03, E -0.006 ± 0.055
S2: P -0.175 ± 0.031, V 0.06 ± 0.036, R -0.021 ± 0.032, A -0.072 ± 0.033, Q -0.06 ± 0.068, F 0.103 ± 0.073, G -0.003 ± 0.031, T 0.079 ± 0.053
L42: K -0.677 ± 0.055, F -0.56 ± 0.073, T -0.585 ± 0.053, V -0.634 ± 0.049, Q -0.505 ± 0.052, S -0.563 ± 0.04, C -0.795 ± 0.12, D -0.493 ± 0.043, N -0.515 ± 0.049, H -0.509 ± 0.11
K22: W -0.209 ± 0.036, I -0.065 ± 0.047, P -0.491 ± 0.035, G -0.233 ± 0.038, A -0.148 ± 0.044, D -0.239 ± 0.075, R -0.023 ± 0.03, S -0.004 ± 0.043, M -0.028 ± 0.052, H 0.024 ± 0.039, N -0.097 ± 0.04
S36: P -0.005 ± 0.048, V -0.105 ± 0.043, F -0.186 ± 0.05, T -0.049 ± 0.052, N -0.146 ± 0.064, A -0.121 ± 0.043
L38: H -0.628 ± 0.07, A -0.534 ± 0.03, K -0.324 ± 0.046, T -0.63 ± 0.047, N -0.666 ± 0.086
K44: C -0.366 ± 0.065, N -0.091 ± 0.067, L -0.289 ± 0.035, E -0.151 ± 0.042, W -0.338 ± 0.057, T -0.128 ± 0.041
S30: A -0.05 ± 0.045, C 0.069 ± 0.048, N 0.126 ± 0.055, P 0.036 ± 0.048
L24: H -0.742 ± 0.15, A -0.829 ± 0.036, E -0.665 ± 0.053, V -0.685 ± 0.038, C -0.393 ± 0.054, M -0.678 ± 0.062, W -1.11 ± 0.15
A40: I -0.186 ± 0.065, K -0.349 ± 0.069, T -0.108 ± 0.048, S -0.028 ± 0.033, H 0.1 ± 0.064, P -0.12 ± 0.041
L20: W -0.833 ± 0.09, V -0.284 ± 0.039, P -0.899 ± 0.092, E -0.788 ± 0.052, N -1.08 ± 0.22, F -0.65 ± 0.067, T -0.727 ± 0.06, C -0.416 ± 0.077
K9: T -0.125 ± 0.055, W -0.235 ± 0.052, N -0.136 ± 0.051, D -0.084 ± 0.054, E -0.068 ± 0.07, Q 0.04 ± 0.043
A28: S 0.138 ± 0.031, F 0.003 ± 0.052, P -0.782 ± 0.064, Y 0.181 ± 0.069, I 0.074 ± 0.064, C 0.054 ± 0.057, H -0.108 ± 0.076, M 0.072 ± 0.036
N18: H 0.042 ± 0.029, S 0.081 ± 0.028, D -0.038 ± 0.033, Y -0.036 ± 0.029, L 0.113 ± 0.028, K 0.124 ± 0.029, V 0.05 ± 0.027, F -0.056 ± 0.038, R 0.079 ± 0.028
V17: H -0.165 ± 0.066, N 0.249 ± 0.06, S -0.036 ± 0.037, M 0.065 ± 0.061, L 0.026 ± 0.034, G -0.146 ± 0.031, D -0.114 ± 0.048, F -0.071 ± 0.057
E50: G -0.228 ± 0.037, Q -0.064 ± 0.083, A -0.21 ± 0.079, D -0.495 ± 0.11, H 0.003 ± 0.16
T43: C -0.071 ± 0.042, Q -0.068 ± 0.047, W -0.202 ± 0.045, A -0.01 ± 0.047, D -0.097 ± 0.058
T14: I 0.007 ± 0.039, H 0.135 ± 0.044, K 0.257 ± 0.041, C -0.074 ± 0.043, P -0.798 ± 0.079, L -0.131 ± 0.047, F -0.204 ± 0.063
S31: E -0.106 ± 0.044, G 0.014 ± 0.027, C -0.013 ± 0.046, P -0.062 ± 0.045, I 0.047 ± 0.06, T -0.052 ± 0.038, Y -0.123 ± 0.071, M -0.066 ± 0.038
H6: C -0.065 ± 0.059, A 0.014 ± 0.036, Q -0.062 ± 0.044, F -0.037 ± 0.035, S -0.056 ± 0.031, I -0.014 ± 0.058, Y -0.042 ± 0.049, G -0.132 ± 0.042, T -0.05 ± 0.048, P 0.044 ± 0.034, N 0.054 ± 0.045, D 0.009 ± 0.048
Q37: A 0.004 ± 0.048, M -0.042 ± 0.034, W -0.459 ± 0.054
